# Results taken from patent US12404345B2, “Humanized antibodies against iRHOM2” (SCIRHOM GMBH, priority 2021, dated 2025).
# Substitutions are numbered along the chain they refer to.
# T1: human iRhom2 (Homo sapiens, UniProt Q6PJF5)
# T1 construct: MEF-DKO-hiR2-FL-WT-T7 cells stably expressing human iRhom2 full length wild type; expressed in transfected cells; host or cells: immortalized iRhom1/2-/- double knockout mouse embryonic fibroblasts, pMSCV retroviral infection
# T1 sequence (Q6PJF5 1-856): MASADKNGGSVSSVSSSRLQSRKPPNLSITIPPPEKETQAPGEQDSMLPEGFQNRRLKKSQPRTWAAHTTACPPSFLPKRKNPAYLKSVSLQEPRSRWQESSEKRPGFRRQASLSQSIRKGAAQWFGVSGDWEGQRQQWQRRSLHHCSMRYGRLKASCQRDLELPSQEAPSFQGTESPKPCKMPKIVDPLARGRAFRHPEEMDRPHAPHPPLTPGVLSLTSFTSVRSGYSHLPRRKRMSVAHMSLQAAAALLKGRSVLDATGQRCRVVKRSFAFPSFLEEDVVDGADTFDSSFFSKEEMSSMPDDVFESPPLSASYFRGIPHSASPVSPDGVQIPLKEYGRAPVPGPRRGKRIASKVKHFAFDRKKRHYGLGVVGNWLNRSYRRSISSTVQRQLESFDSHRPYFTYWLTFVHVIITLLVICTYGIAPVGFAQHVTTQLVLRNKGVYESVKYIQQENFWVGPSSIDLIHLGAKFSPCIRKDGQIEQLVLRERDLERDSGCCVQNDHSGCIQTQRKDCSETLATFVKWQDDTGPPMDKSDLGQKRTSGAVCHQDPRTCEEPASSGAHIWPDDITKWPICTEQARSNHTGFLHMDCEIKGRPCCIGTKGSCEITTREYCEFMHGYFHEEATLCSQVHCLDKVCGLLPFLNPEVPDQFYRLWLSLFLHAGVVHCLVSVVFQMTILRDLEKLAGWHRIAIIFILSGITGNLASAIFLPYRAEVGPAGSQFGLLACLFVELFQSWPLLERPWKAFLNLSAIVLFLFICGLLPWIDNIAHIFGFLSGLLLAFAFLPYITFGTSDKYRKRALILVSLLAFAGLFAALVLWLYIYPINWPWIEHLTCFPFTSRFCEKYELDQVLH
# B1: 23-B-04: humanized antibody binding human iRhom2; HCVD SEQ ID NO 25, LCVD SEQ ID NO 29 (antibody, V domains shown)
# VH: QVTLRESGPALVKPTQTLTLTCTFSGFSLSTFGMGVGWIRQPPGKALEWLAHIWWDDEKYYNSALKSRLTISKDTSKNQVVLTITNMDPVDTATYYCARISNYGSNYWYFNVWGQGTLVTVSS
# VL: AIQLTQSPSSLSASVGDRVTITCRASSSVSYMYWYQQKPGKAPKVLIYDTSNLASGVPSRFSGSGSGTDYTLTISSLQPEDFATYYCQQWNAYPLTFGQGTKLEIK
# modifications: antibody sequences
# B2: 42-B-04: humanized antibody binding human iRhom2; HCVD SEQ ID NO 41, LCVD SEQ ID NO 45 (antibody, V domains shown)
# VH: B1 VH with M34R, S101Q, N111D
# VL: B1 VL with S28R, V29I, Y33F
# modifications: antibody sequences
# B3: 42-B-02: humanized antibody binding human iRhom2; HCVD SEQ ID NO 33, LCVD SEQ ID NO 37 (antibody, V domains shown)
# VH: B1 VH with M34R, S101Q, N111D
# VL: B1 VL with S28R, V29I, Y33F, A92S
# modifications: antibody sequences
# B4: 16-B-03: humanized antibody binding human iRhom2; HCVD SEQ ID NO 1, LCVD SEQ ID NO 5 (antibody, V domains shown)
# VH: QVTLRESGPALVKPTQTLTLTCTFSGFSLSTFALGVGWIRQPPGKALEWLAHIWWDDDKYYNPALKSRLTISKDTSKNQVVLTITNMDPVDTATYYCARITTYYYGMDYWGQGTLVTVSS
# VL: EIVMTQSPDFQSVTPKEKVTITCRASQSIGNHLHWYQQKPDASPKLLIKYASQSISGVPSRFSGSGSGTDFTLTINSLEAEDAATYFCQQSYQWPLTFGQGTKLEIK
# modifications: antibody sequences
# B5: 16-B-07: humanized antibody binding human iRhom2; HCVD SEQ ID NO 17, LCVD SEQ ID NO 21 (antibody, V domains shown)
# VH: B4 VH with D57E
# VL: B4 VL
# modifications: antibody sequences
# B6: 16-B-05: humanized antibody binding human iRhom2; HCVD SEQ ID NO 9, LCVD SEQ ID NO 13 (antibody, V domains shown)
# VH: B4 VH with D57E
# VL: B4 VL with Q93N
# modifications: antibody sequences
# Target: T1, human iRhom2
# Test: Affinity determination by indirect FACS scatchard analysis on L929-2041-hiR2-FL-WT-T7 cells
# Type: binding
# Details: 22 two-fold dilutions starting at 160 μg/ml, on ice 1 hour
# Description: In this study, affinity measurements of the humanized antibodies 16-B-03, 16-B-05, 16-B-07, 23-B-04, 42-B-02 and 42-B-04 of the invention were performed by indirect FACS scatchard analysis on […] cells, a murine cell line expressing human iRhom2.
# The resulting L929 mouse iRhom2 knock-out cell line was afterwards infected with different human iRhom2 constructs to obtain cell line derivatives, stably expressing different human iRhom2 proteins, that allow for binding analyses to different iRhom2 variants in the same genetic background.
# In brief, mRhbdf2.3 IVT gRNA ([…]) was synthesized at Thermo Fisher Scientific GeneArt GmbH, Regensburg, Germany. One day post seeding in 24 well plates, L929 parental cells were transfected according to GeneArt CRISPR Nuclease mRNA user guide (Thermo Fisher Scientific, USA) with the gRNA/GeneArt Platinium Cas9 Nucelase (Thermo Fisher Scientific, USA) mix using Lipofectamine CRISPRMAX Transfection Reagent (Thermo Fisher Scientific, USA). 3 days post transfection, cells were lysed and DNA was extracted for amplification of specific PCR products using the mRhbdf2.3 fwd ([…])/mRhbdf2.3 rev ([…]) 5primer pair (Thermo Fisher Scientific, USA). […] Cleavage assay PCR products were also analyzed on Invitrogen 2% E-Gel Size Select agarose gels. Two rounds of subsequent sub cloning of the identified polyclonal L929 population using limited dilution technique were performed, using the Cleavage Detection Kit for identification of positive sub clones. Thereby, the most promising positive sub clone identified in the first round, named 1029, was further sub cloned in the second round to obtain the final clone, named 2041. The monoclonal cell population derived from this sub clone is named L929-2041 and was used for subsequent infection (according to the procedure described in Example 3) with the human iRhom2 construct hiR2-FL-WT-T7 for the generation of the cell lines L929-2041-hiR2-FL-WT-T7.
# In brief, L929-2041-hiR2-FL-T7 were harvested with 10 mM EDTA in PBS, washed and resuspended in FACS buffer (PBS, 3% FBS, 0.05% sodium azide), and seeded in Nunc U-bottom 96-well plates (Thermo Fisher Scientific, USA) at approximately 3×10^5 cells per well. In order to pellet cells and remove supernatants, the plates were centrifuged at 1,500 rpm and 4° C. for 3 minutes. For primary staining, cells were resuspended in 100 μl per well of either FACS buffer alone (controls) or serial two-fold dilutions (in total 22 concentrations) of the humanized antibodies 16-B-03, 16-B-05, 16-B-07, 23-B-04, 42-B-02 and 42-B-04 of the invention in FACS buffer starting at 160 μg/ml and incubated on ice for 1 hour. Afterwards, plates were centrifuged at 1,500 rpm and 4° C. for 3 minutes and washed twice with 200 μl per well of FACS buffer. For secondary staining, cells were spun down and resuspended in 100 μl per well of PE-conjugated goat anti-human IgG F(ab′)2 detection fragment (Dianova, Germany) diluted 1:100 in FACS buffer. Protected from light, the cell suspensions were incubated on ice for 1 hour. Plates were then centrifuged at 1,500 rpm and 4° C. for 3 minutes and washed three times with 200 μl per well of FACS buffer. Finally, cells were resuspended in 150 μl per well of FACS buffer and analyzed using a BD Accuri™ C6 Plus flow cytometer (Becton Dickinson, Germany). Applying Prism8 software (GraphPad Software, USA), the respective KD value for each of the antibodies of the invention were calculated.
row,KD values for binding to L929-2041-hiR2-FL-T7 cells,Molecule
1,subnanomolar to low nanomolar range,B1
2,subnanomolar to low nanomolar range,B2
3,subnanomolar to low nanomolar range,B3
4,subnanomolar to low nanomolar range,B4
5,subnanomolar to low nanomolar range,B5
6,subnanomolar to low nanomolar range,B6
